Measurements published in the supplement of paper PMC12764529.
± gives the half width of the 95% confidence interval.

Assay: folding stability dG unfold from chymotrypsin proteolysis; higher = more stable
In short: (§1)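 Mini-proteins designed to be under 80 residues and free of cysteine were carried in a PA-tagged cDNA display construct and digested with trypsin and with chymotrypsin. Each protease was applied at 11 threefold-diluted concentrations, alongside a no-protease condition, before sequencing. K50 came from Bayesian fitting of the sequencing counts, and unfolding free energy was obtained by comparing it with a sequence-predicted unfolded-state K50 and a shared folded-state K50, for each protease separately or for both together. Designs were retained only if their AlphaFold2 dimer inter-PAE exceeded 15.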

| Sequence | folding stability dG unfold |
| --- | --- |
| SAGGSAGGSKAGQPIEGPVKIKFTSNGKPHEIDVEVYVLPPGNLIIYFPDESIMLPADNIEIESAGGSAGGS [r12_790_TrROS] | 1.91 ± 0.078 kcal/mol |
| SAGGSAGGSMSEELLAEGPVRIRVRVRNKDGSVEEIEVEAGEEIELPEELKNQDVEIVSIEPVSAGGSAGGS [r12_161_TrROS_Hall] | 2.15 ± 0.088 kcal/mol |
| SAGGSAGGGMEPVTETITVPITTPEELEAVKKEAEARREKEGLVSYEISESPDGTVTITITKPVSAGGSAGG [r6_730_JUSTAS] | 0.334 ± 0.071 kcal/mol |
| SAGGSAMESFLGAAKEVLSQMEPGEIVLLPLERPDDKPLLVLLDPTTRRLVVFYPDGGYEEFDFPESAGGSA [r15_977_TrMRF] | 2.9 ± 0.064 kcal/mol |
| SATTTLNLSSVEELKELVEKLIAEGNPEATLTVTLYPPSGESSTKSFSSVEEVIEELKKGPASVTITVTSSA [r9_589_JUSTAS] | 2.7 ± 0.022 kcal/mol |
| SDEDLEILRVEATPDTIRILFKIPSNPDLYIEVPITVFEDETSRRILINARILRPETGEVIAEIPFEIPLSA [r9_18_TrMRF] | 4.24 ± 0.13 kcal/mol |
| SAGGSAKTVTVEVTLEDGTKITVTVPEDMSEEERKALAQELAEELREKLRQLRELEKEGKEVRIEPSAGGSA [r15_704_TrROS_Hall] | 2.72 ± 0.042 kcal/mol |
| SAGGKSVHIPGLSFEDLRDLIRNLPEPVTIHIEMPMRYPMYKYENGKPKEWQRQEMPMTSTFKIPPDDSAGG [r13_632_TrROS] | -0.522 ± 0.36 kcal/mol |
| SAMPEKRFYTYEIPIPPGFKADEPFVGTVTLEEKTLPIKIGSIPDVPPDATVRLTVDLDTAEFRVELLPSAG [r14_554_TrMRF] | 1.3 ± 0.087 kcal/mol |
| SAGGSAGGSAGGGPAPGKGLVVKLEPEEFEFENFRLIVVKAVKDDKLIAEIAYLISPDESAGGSAGGSAGGS [r10_628_TrMRF] | 0.823 ± 0.18 kcal/mol |
| SAGGSAGGGGVAEEVAALLKALGLKVKKIEVEVEEVPPDKKVARVKVTAELPTKKVTFELRVEVSAGGSAGG [r6_532_TrMRF] | 3 ± 0.068 kcal/mol |
| SAGGSAELVSVDVELEGRYLRVRARFRLPDGREVEVEVRFSLPGVPPAPPVFPYRDPETGELRLGLSAGGSA [r15_335_TrMRF] | 3.614 ± 0.023 kcal/mol |
| SAGGPPVIRFPTAEIPASGTIEDIVAAIERATGEPLPEELVEQILNGKTIEEIIELLKKRGYPVEYLSAGGS [r16_601_JUSTAS] | 3.11 ± 0.074 kcal/mol |
| SAGGGKLFVTEDAVLLELLYPETGEPYLAVFNPPTGLVTVYFPNRLKALFKIDPDGNLTLVKIEPANSAGGS [r16_127_TrMRF] | 2.979 ± 0.028 kcal/mol |
| SAGGMPLEDMSLEELKARLEEALEELRAKLPPGEKKTLTLTVTLTVVDKETGETRTVTLTVTLTLPAPSAGG [r13_385_TrROS_Hall] | 4.38 ± 0.052 kcal/mol |
| SAGGSAGGANDPEMPKPKRVEITIPPDEEIRNPNGKEMPVEQAREYAEYLADRYGIDVEITISPSAGGSAGG [r6_162_TrROS] | 0.215 ± 0.43 kcal/mol |
| SAGGSAVVVTTDPNGTLTVYADNKVVKVKVIPLPRPDPLTGSTSTLLLVEVEVSPLKPDPLPPEFPSAGGSA [r15_515_TrMRF] | 2.65 ± 0.12 kcal/mol |
| SAGGSAPEVRLSASREGNTVTVLALKPVGDRTYLVVTTYEVRELGEGFLVLSSSEVIPLPDGEGFFSAGGSA [r15_725_TrMRF] | 2.66 ± 0.044 kcal/mol |
| SAGGSIKVFESESTDPATGKVTTTTTTVTESSEEPTPEAAKNTPPGETTTTTTTTTTTSPVPPGTAASAGGS [r8_274_JUSTAS] | 0.67 ± 0.022 kcal/mol |
| SAGGSAGGSAGPPVTLDEIRDHLPPENIEDVEVNPPEGWVVIEFKPPGGEKQEITIRADDSAGGSAGGSAGG [r17_374_TrROS] | 0.271 ± 0.021 kcal/mol |
| SMKVEIPPELVEAIEKALAEKKPGEEVEIEFEHPDGPLIRVRIEKDGRVRIEVFEHPDKLIAEFEFEPKPSA [r9_132_TrMRF] | 2.98 ± 0.087 kcal/mol |

| Sequence | folding stability dG unfold |
| --- | --- |
| SMKLKPGQTAKIVEIKENYIYIEVNGKKYKISLEELKEKGYEIKIVNGKIVEIRPKPKKKLSEEELKKLKSA [r9_842_TrROS_Hall] | 1.04 ± 0.16 kcal/mol |
| SAGGSAVSISTVTSTSFPGSGTSVKTYETPDFTVTVTTTRDPNGADTVEIHTDDPEAEKTVREYLASAGGSA [r15_42_JUSTAS] | -0.348 ± 0.28 kcal/mol |
| SAGGSAGGSMTFSSEEEAEAFIAQLPPDSEVEVEIKDPNTDKTTKYKIKVPPEQPVYSPKGVLSAGGSAGGS [r12_393_JUSTAS] | 1.5 ± 0.063 kcal/mol |
| MPNLKPALLVIPMKVESIEEAEEKVLAFAEELAEAFPNIKKIEVEILEIDEENGIVIAKITVEAEDSALDAS [r1_52_TrMRF] | 2.34 ± 0.051 kcal/mol |
| SAGMVITISSDLSPEEVLATAQALAAELGAKKVEVERDPANPDVVTVTVEFPGLGKTVTVNVLPPELLESAG [r5_912_JUSTAS] | 1.78 ± 0.065 kcal/mol |
| SAGGSAGGSAGGEKPKYIIIPATLTVPVLTKEGEGEKVEYKEITLLLIINPDTNEITVSSAGGSAGGSAGGS [r10_533_TrMRF] | 3.07 ± 0.07 kcal/mol |
| SAGGKYGYKIEIEIAIFRIPPGAEVEPERIGNIEIYRIRFPDGNWLIMIRIKVKPMPPPPPEKKDNDDSAGG [r13_804_TrROS] | 4.7 ± 0.23 kcal/mol |
| SAGGSAGGSDVEVEEVDVEIEVNGKKFKVKIYRNKKDKNRYYIFFEDTGKVFEIDKNGNIRPLSAGGSAGGS [r12_580_TrROS_Hall] | 3.49 ± 0.044 kcal/mol |
| SSMTLVTVEMEITLRTPEGGSETLKRTFEREVSPDDPAAVEAAVEAAKEEIREAHPDVVEVRVVKVDTALSA [r9_436_JUSTAS] | 4.459 ± 0.039 kcal/mol |
| SMEIDPGPGVIRLRFEAPLVDPEHPRLLTLRLEPVIEVSPDGTLRVREVRLVGFSPDGELLFERPFTLDLSA [r9_383_TrMRF] | 2.28 ± 0.06 kcal/mol |
| SAGGSAGGYWKVEIKNGMTFSIPGMTLDEAKNHARWHGFPMPIDKIEIEPVKPPPPPPKDPDDQSAGGSAGG [r6_688_TrROS] | 2.95 ± 0.22 kcal/mol |
| SAGGSAKKKEKKVEKKVITIEVEPGVKTPEEMLEAIRKLKEEYPDTKIIIKASDEQKEALKRLLKESAGGSA [r15_89_TrROS_Hall] | 0.879 ± 0.14 kcal/mol |
| SAGGSAGGSAGGDSNVDNFTLMFPWGWVVKIDITYTDGGLETDWEIIEPVPPLPPDDKNKSAGGSAGGSAGG [r7_845_TrROS] | 3.54 ± 0.037 kcal/mol |
| SAGMMTVEELKEKLKEAAEKAGVKVKEIKITGPDGKEITVEVDLSEEQLKKLAEELGLEIDEVEVREPSAGG [r19_50_TrROS_Hall] | 1.75 ± 0.092 kcal/mol |
| SAGGPWHEQKHEITDPDDGKPIKISHTHYPDGYPRVRIELNNGKKIEFMVPPNGPPTPDQLLDAIKQFSAGG [r13_492_TrROS] | 0.452 ± 0.16 kcal/mol |
| SAGGSAGGSEEREYVEVEFEFLARLEDGSLLVTRVRLLLPAEPAELRPEVRSEVLPLAPGEELSAGGSAGGS [r12_811_TrMRF] | 2.7 ± 0.063 kcal/mol |
| SAGGDLKIEIEPYRMGDYPMYEVKIEDPDGKDITLWMNSNNGQMMVFYPNGKPRRVDSAEDVLEALKSAGGS [r8_168_TrROS] | 0.185 ± 0.16 kcal/mol |
| SAGGKKKKKKKKKKKKKVKVRVRIVVENKNGEKKEIEIELKGLTLEELKKLAKELEKKGFKVKKIEIESAGG [r13_227_TrROS_Hall] | 3.53 ± 0.16 kcal/mol |
| SAGGSAGGSAGGSIEIEITVELEDGYYLRISARFELNEDGSLKLEIKIELIKIEPGQELSAGGSAGGSAGGS [r10_241_TrROS_Hall] | 2.27 ± 0.1 kcal/mol |
| SAGGSAGGSEEKTVLARIKITFPDGEKREIEVEMTLDELKKLLEELGLSEEEVKIEVELVPLPSAGGSAGGS [r20_154_TrROS_Hall] | 3.56 ± 0.071 kcal/mol |
| SAGGEPMKIRIEIYRMKRKKDPKDGKEKWDMRPVPEYEIPFPPGETLLDILDKLPLPPGYMIKRISIESAGG [r13_716_TrROS] | 2.07 ± 0.12 kcal/mol |

Assay: folding stability dG unfold from trypsin proteolysis; higher = more stable
In short: as §1

| Sequence | folding stability dG unfold |
| --- | --- |
| SAGGSAGGSKAGQPIEGPVKIKFTSNGKPHEIDVEVYVLPPGNLIIYFPDESIMLPADNIEIESAGGSAGGS [r12_790_TrROS] | 1.09 ± 0.072 kcal/mol |
| SAGGSAGGSMSEELLAEGPVRIRVRVRNKDGSVEEIEVEAGEEIELPEELKNQDVEIVSIEPVSAGGSAGGS [r12_161_TrROS_Hall] | 0.838 ± 0.058 kcal/mol |
| SAGGSAGGGMEPVTETITVPITTPEELEAVKKEAEARREKEGLVSYEISESPDGTVTITITKPVSAGGSAGG [r6_730_JUSTAS] | 0.155 ± 0.1 kcal/mol |
| SAGGSAMESFLGAAKEVLSQMEPGEIVLLPLERPDDKPLLVLLDPTTRRLVVFYPDGGYEEFDFPESAGGSA [r15_977_TrMRF] | 2.74 ± 0.046 kcal/mol |
| SATTTLNLSSVEELKELVEKLIAEGNPEATLTVTLYPPSGESSTKSFSSVEEVIEELKKGPASVTITVTSSA [r9_589_JUSTAS] | 2.18 ± 0.045 kcal/mol |
| SDEDLEILRVEATPDTIRILFKIPSNPDLYIEVPITVFEDETSRRILINARILRPETGEVIAEIPFEIPLSA [r9_18_TrMRF] | 3.53 ± 0.16 kcal/mol |
| SAGGSAKTVTVEVTLEDGTKITVTVPEDMSEEERKALAQELAEELREKLRQLRELEKEGKEVRIEPSAGGSA [r15_704_TrROS_Hall] | 1.02 ± 0.023 kcal/mol |
| SAGGKSVHIPGLSFEDLRDLIRNLPEPVTIHIEMPMRYPMYKYENGKPKEWQRQEMPMTSTFKIPPDDSAGG [r13_632_TrROS] | -1.01 ± 0.47 kcal/mol |
| SAMPEKRFYTYEIPIPPGFKADEPFVGTVTLEEKTLPIKIGSIPDVPPDATVRLTVDLDTAEFRVELLPSAG [r14_554_TrMRF] | 0.91 ± 0.1 kcal/mol |
| SAGGSAGGSAGGGPAPGKGLVVKLEPEEFEFENFRLIVVKAVKDDKLIAEIAYLISPDESAGGSAGGSAGGS [r10_628_TrMRF] | 1.05 ± 0.12 kcal/mol |
| SAGGSAGGGGVAEEVAALLKALGLKVKKIEVEVEEVPPDKKVARVKVTAELPTKKVTFELRVEVSAGGSAGG [r6_532_TrMRF] | 1.97 ± 0.092 kcal/mol |
| SAGGSAELVSVDVELEGRYLRVRARFRLPDGREVEVEVRFSLPGVPPAPPVFPYRDPETGELRLGLSAGGSA [r15_335_TrMRF] | 3.27 ± 0.056 kcal/mol |
| SAGGPPVIRFPTAEIPASGTIEDIVAAIERATGEPLPEELVEQILNGKTIEEIIELLKKRGYPVEYLSAGGS [r16_601_JUSTAS] | 3.84 ± 0.14 kcal/mol |
| SAGGGKLFVTEDAVLLELLYPETGEPYLAVFNPPTGLVTVYFPNRLKALFKIDPDGNLTLVKIEPANSAGGS [r16_127_TrMRF] | 2.06 ± 0.093 kcal/mol |
| SAGGMPLEDMSLEELKARLEEALEELRAKLPPGEKKTLTLTVTLTVVDKETGETRTVTLTVTLTLPAPSAGG [r13_385_TrROS_Hall] | 3.43 ± 0.064 kcal/mol |
| SAGGSAGGANDPEMPKPKRVEITIPPDEEIRNPNGKEMPVEQAREYAEYLADRYGIDVEITISPSAGGSAGG [r6_162_TrROS] | -0.406 ± 0.29 kcal/mol |
| SAGGSAVVVTTDPNGTLTVYADNKVVKVKVIPLPRPDPLTGSTSTLLLVEVEVSPLKPDPLPPEFPSAGGSA [r15_515_TrMRF] | 2.21 ± 0.2 kcal/mol |
| SAGGSAPEVRLSASREGNTVTVLALKPVGDRTYLVVTTYEVRELGEGFLVLSSSEVIPLPDGEGFFSAGGSA [r15_725_TrMRF] | 1.626 ± 0.015 kcal/mol |
| SAGGSIKVFESESTDPATGKVTTTTTTVTESSEEPTPEAAKNTPPGETTTTTTTTTTTSPVPPGTAASAGGS [r8_274_JUSTAS] | 0.476 ± 0.057 kcal/mol |
| SAGGSAGGSAGPPVTLDEIRDHLPPENIEDVEVNPPEGWVVIEFKPPGGEKQEITIRADDSAGGSAGGSAGG [r17_374_TrROS] | 0.198 ± 0.062 kcal/mol |
| SMKVEIPPELVEAIEKALAEKKPGEEVEIEFEHPDGPLIRVRIEKDGRVRIEVFEHPDKLIAEFEFEPKPSA [r9_132_TrMRF] | 3.31 ± 0.095 kcal/mol |
